We go through two molecules from patent US20150118238A1 (Eli Lilly, published 2015).

Positions count from the first letter of the chain named. Where only a bound is given, the exact number is not on record here.

Test [1] has as its target T1, human c-Met-ECD-Fc-Flis (human).
T1 construct: Expressed in CHO cells; also called c-Met-ECD with Fc and Flis tag; ECD of human c-MET
Nature of the test: SPR (BIAcore), antibody captured by goat anti-mouse Fc, c-Met-ECD-Fc-Flis as analyte, 25 C, 1:1 model, n=2.

Test [2] concerns the target T1, human c-Met-ECD-Fc-Flis. The test can be described thus: SPR (BIAcore).
Test [3] concerns the target T2, RON on RON-transfected NIH 3T3 cells (UniProt Q04912 25-1400, limits assumed).
T2 construct: whole, on cells; Formalin-fixed paraffin-embedded cell pellets in IHC; also called RON transfected NIH3T3 Cell Line
Nature of the test: IHC on FFPE cell microarray (Dako EnVision FLEX+), manual reading by brightfield microscope. From the text:
For staining human tumor cell lines, 60 million cells may be harvested, formalin-fixed, and processed into histogel. The histogel cell pellets may be embedded into paraffin blocks, cored, and designed into a cell microarray that may be re-embedded in a paraffin block and then microtomed onto slides. These slides may be immunohistochemically stained and counterstained using the IHC assay protocol as described above in Example 7. RON-transfected NIH 3T3 cells and mock NIH 3T3 cells (mouse embryonic fibroblasts) are used as non-c-MET expressing negative controls.

The target in test [4] is T3, ECD of human RON (R&D Systems, #1947-MS-050) (human, UniProt Q04912 25-957).
T3 construct: extracellular domain; Bought reagent; also called MST1R
Nature of the test: IHC pre-absorption/blocking: Antibody II at 2 microgram/mL incubated overnight with RON ECD, then used to stain slides. The method, then:
The antibody, or antigen-binding fragment thereof, of the present invention at 2 microgram/mL may be incubated overnight with either c-Met-ECD-Fc-Flis (SEQ ID NO: 23) or the ECD of human RON (R&D Systems, #1947-MS-050) at 200× molar excess on a rotator at 4° C. After overnight incubation, the antibody, or antigen-binding fragment thereof, of the present invention may be tested against slides of human tissue or cancer cell lines as described above in Example 6.

T1 sequence (chain, as listed by the source limits assumed): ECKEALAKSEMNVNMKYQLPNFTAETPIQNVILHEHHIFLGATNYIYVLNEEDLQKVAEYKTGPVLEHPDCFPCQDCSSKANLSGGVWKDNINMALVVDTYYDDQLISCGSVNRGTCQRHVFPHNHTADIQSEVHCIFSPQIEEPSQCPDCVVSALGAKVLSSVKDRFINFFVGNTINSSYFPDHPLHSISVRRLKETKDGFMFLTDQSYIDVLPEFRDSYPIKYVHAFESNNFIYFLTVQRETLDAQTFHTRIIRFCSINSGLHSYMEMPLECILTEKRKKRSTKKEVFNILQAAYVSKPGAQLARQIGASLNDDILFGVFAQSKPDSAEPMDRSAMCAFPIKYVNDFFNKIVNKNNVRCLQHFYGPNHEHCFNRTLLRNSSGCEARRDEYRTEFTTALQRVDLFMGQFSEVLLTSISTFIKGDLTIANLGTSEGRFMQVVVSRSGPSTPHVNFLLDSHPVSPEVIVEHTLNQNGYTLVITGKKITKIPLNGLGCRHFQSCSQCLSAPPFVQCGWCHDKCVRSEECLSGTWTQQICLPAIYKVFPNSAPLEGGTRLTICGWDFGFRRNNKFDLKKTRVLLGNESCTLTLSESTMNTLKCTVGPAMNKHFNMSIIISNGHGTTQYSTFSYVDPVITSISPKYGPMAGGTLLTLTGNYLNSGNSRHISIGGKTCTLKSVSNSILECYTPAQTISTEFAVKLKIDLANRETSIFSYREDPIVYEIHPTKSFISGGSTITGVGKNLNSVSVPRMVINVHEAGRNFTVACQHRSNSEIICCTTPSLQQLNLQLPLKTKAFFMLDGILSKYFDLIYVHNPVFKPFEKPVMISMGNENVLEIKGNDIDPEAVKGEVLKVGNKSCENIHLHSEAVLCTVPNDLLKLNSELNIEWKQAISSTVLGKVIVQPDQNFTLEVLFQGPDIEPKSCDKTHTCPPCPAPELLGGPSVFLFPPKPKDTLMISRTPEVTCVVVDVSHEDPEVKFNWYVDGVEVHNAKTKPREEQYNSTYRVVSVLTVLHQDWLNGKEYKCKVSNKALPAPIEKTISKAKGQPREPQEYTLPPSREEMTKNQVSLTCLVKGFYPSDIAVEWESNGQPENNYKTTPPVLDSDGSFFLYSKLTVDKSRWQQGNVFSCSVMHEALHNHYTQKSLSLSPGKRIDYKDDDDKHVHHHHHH

B1: Antibody I (antibody, V domains shown)
VH: EVQLQQSGTVLARPGASVKMSCKASGYSFTSYWMYWVKQRPGQGLEWIGGFHPGNSGTNYNQKFKGKAKLTAVTSASTAYMELSSLTNEDSAVYYCTRGYYYDGSFTYWGQGTLVTVSA
VL: EIQMTQSPASLSASVGETVTITCRASENIYSYLAWYQRKQGRSPQLLVYNAKPLAEGVPSRFSGSGSGTQFSLKINSLQPEDFGTYYCQHHYGTPFTFGSGTRLEIKR
notes: Captured by anti-mouse Fc and detected with anti-mouse IgG; also called R-PE-Antibody I (R-phycoerythrin conjugate used in the CTC assay)
In the test with human c-Met-ECD-Fc-Flis [1], B1 had a Kd of 2.47 nM, a koff of 0.000302 s⁻¹ and an on-rate constant (kon) of 123000 M⁻¹ s⁻¹.

B2: Antibody II (antibody, V domains shown)
VH: B1 VH with G54R
VL: B1 VL
notes: also called R-PE-Antibody II (R-phycoerythrin conjugate used in the CTC assay); Antibody II (Anti-cMET)
As for B2, the “fold binding affinity compared to Antibody I” value with human c-Met-ECD-Fc-Flis [2] was above 5 fold. Moreover, the binding result in test [3] was “no binding (tested: 2 µg/mL)”. Further, the binding result in test [4] is “no binding (tested: 200× molar excess)”. For the same molecule, in the test with human c-Met-ECD-Fc-Flis [1], the equilibrium dissociation constant (Kd) was determined as 0.37 nM, the koff is 4.6e-05 s⁻¹ and the kon was determined as 125000 M⁻¹ s⁻¹.
